Source: patent US20110104157A1, “LIVER CANCER DRUG” (Chugai Seiyaku Kabushiki Kaisha, priority 2008, published 2011)

Key:
[1] = test system: liver cancer; conditions: liver cancer patients, phase II; cited from earlier work
[2] = thermal denaturation midpoint temperature (Tm) by DSC, Reference Example 3; assay type: physicochemical; conditions: Fab domain peak, sodium acetate buffer pH 6.0 with 150 mmol/L NaCl, about 1 K/minute
Procedure: The thermal denaturation midpoint temperature (Tm) was determined by the top of the denaturation peak in the thermogram (Cp versus T) obtained after heating the test sample solution at a constant programmed heating rate. The Tm value of the humanized H0L0 antibody was measured using a sample solution for DSC measurement prepared as described in the following. The antibody solution (corresponding to 50 to 100 μg) filled in a dialysis membrane was first dialyzed for 24 hours against a dialysis external solution of 20 mol/L sodium acetate buffer solution (pH 6.0) containing 150 mmol/L sodium chloride. Subsequently, the sample solution was adjusted its antibody concentration of 50 to 100 μg/mL with dialysis external solution and used as the sample solution for DSC measurement.
A suitable DSC instrument, for example, DSC-II (Calorimetry Sciences Corporation), is used for this experiment. The sample solution prepared as described above and the reference solution (dialysis external solution) were thoroughly degassed, and each of these test specimens was placed in a calorimeter cell and was thermally equilibrated at 40° C. A DSC scan was then run from 40° C. to 100° C. at a scan rate of approximately 1 K/minute. The results of this measurement are given as the top of the denaturation peak as a function of temperature.

[3] = test system: liver cancer cells; conditions: against liver cancer cells; see WO 2006/006693; cited from earlier work
[4] = target: T1, soluble GPC3 core polypeptide (Homo sapiens (Human), UniProt P51654 25-563); experiment: competitive ELISA, soluble GPC3 core polypeptide on plate, competitor biotinylated H0L0
T1 construct: It was immobilised on the ELISA plate at 1 ug/mL; also called glypican 3; antigen glypican 3
Procedure: 100 μL of the soluble GPC3 core polypeptide (SEQ ID NO: 36) at 1 μg/mL was added to each well of a 96-well plate. The soluble GPC3 core polypeptide was immobilized on the plate by allowing the plate to stand overnight at 4° C. The soluble GPC3 core polypeptide immobilized on the plate was washed 3 times with a washing buffer using a Skan WASHER400 (Molecular Devices); and blocked with 200 μL blocking buffer at 4° C. for at least 30 min. The blocked plate on which soluble GPC3 core polypeptide was immobilized was then washed 3 times with washing buffer using the Skan WASHER400. […] The plate was left stand for 1 hour at room temperature, then washed 5 times with washing buffer using the Skan WASHER400 (Molecular Devices). 100 μL goat anti-streptavidin alkaline phosphatase (ZYMED), diluted 20,000× with substrate buffer, was added to each well, and the resulting plate was left stand for 1 hour at room temperature, and then washed 5 times with washing buffer using the Skan WASHER400. Phosphatase Substrate (Sigma) was prepared at 1 mg/mL in the substrate buffer, added at 100 μL, per well for 1 hour. The absorbance at 405 nm of the reaction solution in each well was measured using a Benchmark Plus (BIO-RAD), with the control absorbance at 655 nm.

[5] = pI value by electrophoresis with PhastGel IEF 4-6.5, Reference Example 4; assay type: physicochemical; conditions: for pI value: PhastGel IEF 4-6.5
Procedure: The pI values of the Hd1.8Ld1.6 antibody and pH7pL16 antibody were measured by electrophoresis with PhastGel IEF 4-6.5 (GE Healthcase) using the method described in Reference Example 3 or similar method.

[6] = Tm of Fabs by VP-DSC, Reference Example 4; assay type: physicochemical; conditions: PBS, 20° C. to 115° C., about 4K/min
Procedure: The Tm values of Fabs obtained from Hd1.8Ld1.6 antibody and pH7pL16 antibody were measured with VP-DSC (Micro Cal) using the method similar to Reference Example 3. In this experiment, PBS was used as a dialysis solution, and the antibody concentration in the test solution for DSC measurement was adjusted to 25-100 μg/ml. DSC scanning was set from 20° C. to 115° C. at the scanning rate of about 4K/min, with the reference solution (dialysis solution) and DSC measurement test solution. The thermal denaturation midpoint temperature of the Fabs of the Hd1.8Ld1.6 antibody and pH7pL16 antibody was 77.5 and 74.7° C., respectively.

[7] = pI value by isoelectric electrophoresis, Reference Example 3; assay type: physicochemical
Procedure: The pI value of each antibody was calculated based on the analysis by isoelectric electrophoresis. Electrophoresis was carried out as described in the following. Using a Phast-System Cassette (Amersham Bioscience), Phast-Gel Dry IEF (Amersham Bioscience) gel was swollen for about 60 minutes with a swelling solution with the composition given below.
• 1.5 mL 10% glycerol • 100 μL Pharmalyte 8-10.5 for IEF (Amersham Bioscience)
• 1.5 mL purified water • 20 μL Pharmalyte 8-10.5 for IEF (Amersham Bioscience) • 80 μL Pharmalyte 5-8 for IEF (Amersham Bioscience)
Approximately 0.5 μg antibody was loaded on the swollen gel and isoelectric electrophoresis was run using the PhastSystem (Amersham Bioscience) controlled by the program described below. The sample was added to the gel at Step 2 of this program. A Calibration Kit for pI (Amersham Bioscience) was used for the pI markers.
After electrophoresis, the gel was fixed with 20% TCA and silver staining was then carried out using a Silver Staining Kit, Protein (Amersham Bioscience) according to the instructions provided with the kit. After staining, the isoelectric point of each antibody (test sample) was calculated based on the already known isoelectric points of the pI markers.

[8] = target: soluble GPC3 core polypeptide (Homo sapiens, UniProt P51654, S495A/S509A); experiment: competitive ELISA of binding activity against biotinylated humanized H0L0 antibody; conditions: for antigen binding activity compared with humanized H0L0 antibody: Reference Example 3
Procedure: The humanized H0L0 antibody and its point mutation-modified antibodies purified in (1) was evaluated by competitive ELISA. 100 μL of the soluble GPC3 core polypeptide (SEQ ID NO: 36) at 1 μg/mL was added to each well of a 96-well plate. The soluble GPC3 core polypeptide was immobilized on the plate by allowing the plate to stand overnight at 4° C. The soluble GPC3 core polypeptide immobilized on the plate was washed 3 times with a washing buffer using a Skan WASHER400 (Molecular Devices); and blocked with 200 μL blocking buffer at 4° C. for at least 30 min. The blocked plate on which soluble GPC3 core polypeptide was immobilized was then washed 3 times with washing buffer using the Skan WASHER400. Subsequently, each well of the plate received 200 μL of a mixture containing 100 μL of biotinylated humanized H0L0 antibody (final concentration=0.3 μg/mL) and 100 μL of the humanized H0L0 antibody or its point mutation-modified antibody (at various concentrations). The humanized H0L0 antibody was biotinylated using a Biotin Labeling Kit (Roche) according to the instructions provided with the kit. The plate was left stand for 1 hour at room temperature, then washed 5 times with washing buffer using the Skan WASHER400 (Molecular Devices). 100 μL goat anti-streptavidin alkaline phosphatase (ZYMED), diluted 20,000× with substrate buffer, was added to each well, and the resulting plate was left stand for 1 hour at room temperature, and then washed 5 times with washing buffer using the Skan WASHER400. Phosphatase Substrate (Sigma) was prepared at 1 mg/mL in the substrate buffer, added at 100 μL, per well for 1 hour. The absorbance at 405 nm of the reaction solution in each well was measured using a Benchmark Plus (BIO-RAD), with the control absorbance at 655 nm.
The binding activity to the antigen glypican 3 of each point mutation pI modified antibody was measured using the method described in Reference Example 3.

[9] = test system: HuH-7 xenograft; experiment: Example 2 antitumor effect, HuH-7 xenograft mouse model (hGC33 and Sorafenib); assay type: in vivo; conditions: hGC33 5 mg/kg i.v. weekly x3 alone or Sorafenib 80 mg/kg oral 5 times per week x3 alone
Procedure: HepG2 cells or HuH-7 cells (5×10^5 cells) dispersed in 50% Matrigel (Becton Dickinson) were subcutaneously implanted. When the tumor volume reached 250 mm^3, the mice were divided into groups and administration commenced.
The asterisks in the figures indicate that P<0.05, based on the Dunnett's test. […] The open circles indicate the change in body weight in the group given the vehicle. […] The open squares indicate the change in body weight in the group given only Sorafenib in a dose of 80 mg/kg. […]

Sequence of soluble GPC3 core polypeptide (Homo sapiens, UniProt P51654, S495A/S509A) (P51654 with tags, fused parts or gaps S495A/S509A): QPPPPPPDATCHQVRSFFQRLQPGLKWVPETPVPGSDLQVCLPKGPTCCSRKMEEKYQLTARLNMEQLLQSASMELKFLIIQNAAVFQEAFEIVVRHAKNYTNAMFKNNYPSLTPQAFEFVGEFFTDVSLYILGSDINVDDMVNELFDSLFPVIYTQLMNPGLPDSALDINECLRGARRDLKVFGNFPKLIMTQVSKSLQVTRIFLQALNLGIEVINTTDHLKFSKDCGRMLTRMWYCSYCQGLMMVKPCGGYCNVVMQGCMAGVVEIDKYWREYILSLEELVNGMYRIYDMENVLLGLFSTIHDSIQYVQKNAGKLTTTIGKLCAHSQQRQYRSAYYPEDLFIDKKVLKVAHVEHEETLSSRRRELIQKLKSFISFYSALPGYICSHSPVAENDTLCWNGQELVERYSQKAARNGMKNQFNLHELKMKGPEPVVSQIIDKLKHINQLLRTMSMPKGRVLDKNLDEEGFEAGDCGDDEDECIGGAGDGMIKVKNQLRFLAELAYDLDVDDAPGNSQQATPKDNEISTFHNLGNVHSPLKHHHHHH
T1 sequence (P51654 other isoform, or with tags, fused parts or gaps limits assumed): as the sequence (P51654 with tags, fused parts or gaps S495A/S509A) above

For `CS(=O)(=O)CCNCc1ccc(-c2ccc3ncnc(Nc4ccc(OCc5cccc(F)c5)c(Cl)c4)c3c2)o1` [lapatinib], the rate of response [1] is listed as 0% and the time to progression [1] is listed as 1.8 months.

In the case of Synagis: example of existing antibodies, the “Tm value (thermal denaturation midpoint temperature)” value [2] is reported as 85.4 °C.

B1: GC33: Mouse anti-human glypican 3 monoclonal antibody, clone GC33, WO 2006/006693; variable regions SEQ ID NOs: 1 and 2 (antibody, V domains shown)
VH: QVQLQQSGAELVRPGASVKLSCKASGYTFTDYEMHWVKQTPVHGLKWIGALDPKTGDTAYSQKFKGKATLTADKSSSTAYMELRSLTSEDSAVYYCTRFYSYTYWGQGTLVTVSA
VL: DVVMTQTPLSLPVSLGDQASISCRSSQSLVHSNGNTYLHWYLQKPGQSPKLLIYKVSNRFSGVPDRFSGSGSGTDFTLKISRVEAEDLGVYFCSQNTHVPPTFGSGTKLEIK
modifications: Modified antibody
For B1, the “ADCC and CDC activities” value [3] is listed as “greater”.

B2: H15L4 antibody (antibody, V domains shown)
VH: QVQLVQSGAEVKKPGASVKVSCKASGYTFTDYEMHWIRQPPGQGLEWIGAIDPKTGDTAYSQKFKGRVTLTADKSTSTAYMELSSLTSEDTAVYYCTRFYSYTYWGQGTLVTVSS
VL: DIVMTQSPLSLPVTPGEPASISCRSSQSLVHSNRNTYLHWYQQKPGQAPRLLIYKVSNRFSGVPDRFSGSGSGTDFTLKISRVEAEDVGVYYCSQNTHVPPTFGQGTKLEIK
B2: binds [4].

B3: Hd1.8Ld1.6: antibody composed of Hspd1.8 (SEQ ID NO: 27) and Lspd1.6 (SEQ ID NO: 29), lowered pI (antibody, V domains shown)
VH: QVQLVQSGAEVKKPGASVTVSCKASGYTFTDYEMHWIRQPPGEGLEWIGAIDPKTGDTAYSQSFQDRVTLTADKSTSTAYMELSSLTSEDTAVYYCTRFYSYTYWGQGTLVTVSS
VL: DIVMTQSPLSLPVTPGEPASISCRASESLVHSNRNTYLHWYQQKPGQAPRLLIYKVSNRFSGVPDRFSGSGSGTDFTLTISSLQAEDVGVYYCSQNTHVPPTFGQGTKLEIK
modifications: Modified antibody
In the case of B3, the pI value [5] is reported as 7.47, the “thermal denaturation midpoint temperature of the Fabs” value [6] is reported as 77.5 °C and the “reduction of pI relative to humanized H0L0 antibody” value [7] is reported as 1.5. For the same molecule, the pI value ([7]; isoelectric electrophoresis, Phast-Gel Dry IEF) was 7.4 and the “antigen binding activity compared with humanized H0L0 antibody” value [8] was “about the same”.

B4: hGC33: humanized anti-glypican 3 antibody, H chain variable region SEQ ID NO: 3, L chain SEQ ID NO: 4 (antibody, V domains shown)
VH: QVQLVQSGAEVKKPGASVKVSCKASGYTFTDYEMHWVRQAPGQGLEWMGALDPKTGDTAYSQKFKGRVTLTADKSTSTAYMELSSLTSEDTAVYYCTRFYSYTYWGQGTLVTVSS
VL: DVVMTQSPLSLPVTPGEPASISCRSSQSLVHSNGNTYLHWYLQKPGQSPQLLIYKVSNRFSGVPDRFSGSGSGTDFTLKISRVEAEDVGVYYCSQNTHVPPTFGQGTKLEIK
modifications: Modified antibody
With B4 the “tumor growth, single agent” value [9] was “suppressed”.

B5: pH7pL16: pI modified humanized anti-glypican 3 antibody, pH7 (SEQ ID NO:31) and pL16 (SEQ ID NO:33) (antibody, V domains shown)
VH: QVQLVQSGAEVKKPGASVTVSCKASGYTFTDYEMHWIRQPPGEGLEWIGAIDPKTGDTAYSESFQDRVTLTADKSTSTAYMELSSLTSEDTAVYYCTRFYSYTYWGQGTLVTVSS
VL: DIVMTQSPLSLPVTPGEPASISCQASESLVHSNRNTYLHWYLQKPGQSPQLLIYKVSNRFSGVPDRFSGSGSGTDFTLKISRVEAEDVGVYYCSQNTHVPPTFGQGTKVEIE
modifications: Modified antibody
With B5 the “pI lower than that of Hd1.8Ld1.6 antibody by” value [5] was 0.95, the pI value [5] was 6.52 and the “thermal denaturation midpoint temperature of the Fabs” value [6] was 74.7 °C. For the same molecule, the “binding activity to glypican 3 compared with humanized H0L0 antibody” value ([8]; Reference Example 4) was “comparative”.

B6: H15L4: antibody combining heavy chain H15 (SEQ ID NO: 34) and light chain L4 (SEQ ID NO: 35) (antibody, V domains shown)
VH: QVQLVQSGAEVKKPGASVKVSCKASGYTFTDYEMHWIRQPPGQGLEWIGAIDPKTGDTAYSQKFKGRVTLTADKSTSTAYMELSSLTSEDTAVYYCTRFYSYTYWGQGTLVTVSS
VL: DIVMTQSPLSLPVTPGEPASISCRSSQSLVHSNRNTYLHWYQQKPGQAPRLLIYKVSNRFSGVPDRFSGSGSGTDFTLKISRVEAEDVGVYYCSQNTHVPPTFGQGTKLEIK
modifications: Modified antibody
For B6, the “antigen binding activity compared with humanized H0L0 antibody” value [8] was “about the same”.

B7: Hspd1.8Lspd1.6 (Hd1.8Ld1.6) antibody (antibody, V domains shown)
VH: QVQLVQSGAEVKKPGASVTVSCKASGYTFTDYEMHWIRQPPGEGLEWIGAIDPKTGDTAYSQSFQDRVTLTADKSTSTAYMELSSLTSEDTAVYYCTRFYSYTYWGQGTLVTVSS
VL: DIVMTQSPLSLPVTPGEPASISCRASESLVHSNRNTYLHWYQQKPGQAPRLLIYKVSNRFSGVPDRFSGSGSGTDFTLTISSLQAEDVGVYYCSQNTHVPPTFGQGTKLEIK
B7: binds [4].
